Source: patent US20140274782A1, “AFFINITY REAGENTS AND METHODS FOR DETECTION, PURIFICATION, AND PROTEOMIC ANALYSIS OF METHYLATED PROTEINS” (The Board of Trustees of the Leland Stanford Junior …, priority 2013, published 2014)
Values belong to the molecule of their own block, whether it stands above or below them.

Legend:
G9a and GLP [1] = biological target: T1, G9a and GLP (Homo sapiens, UniProt Q96KQ7+Q9H9B1); experiment: Triple SILAC pull-down after UNC0638 treatment of 293T cells, DMSO/UNC0638 ratio of protein captured by 3×MBT; assay type: cell-based; design: cells were treated for 24 hours with UNC0638 at 2.5 μM or DMSO vehicle control; endogenous in cells; host or cells: HEK 293T; conditions: 293T cells;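 note: mass spectrometry (Q-Exactive) SILAC quantitation, DMSO/UNC0638 ratio computed after subtracting 3×MBTD355N mutant pull-down background, only proteins with at least twofold 3×MBT over mutant signal considered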
T1 sequence (Q96KQ7 2-1210 limits assumed): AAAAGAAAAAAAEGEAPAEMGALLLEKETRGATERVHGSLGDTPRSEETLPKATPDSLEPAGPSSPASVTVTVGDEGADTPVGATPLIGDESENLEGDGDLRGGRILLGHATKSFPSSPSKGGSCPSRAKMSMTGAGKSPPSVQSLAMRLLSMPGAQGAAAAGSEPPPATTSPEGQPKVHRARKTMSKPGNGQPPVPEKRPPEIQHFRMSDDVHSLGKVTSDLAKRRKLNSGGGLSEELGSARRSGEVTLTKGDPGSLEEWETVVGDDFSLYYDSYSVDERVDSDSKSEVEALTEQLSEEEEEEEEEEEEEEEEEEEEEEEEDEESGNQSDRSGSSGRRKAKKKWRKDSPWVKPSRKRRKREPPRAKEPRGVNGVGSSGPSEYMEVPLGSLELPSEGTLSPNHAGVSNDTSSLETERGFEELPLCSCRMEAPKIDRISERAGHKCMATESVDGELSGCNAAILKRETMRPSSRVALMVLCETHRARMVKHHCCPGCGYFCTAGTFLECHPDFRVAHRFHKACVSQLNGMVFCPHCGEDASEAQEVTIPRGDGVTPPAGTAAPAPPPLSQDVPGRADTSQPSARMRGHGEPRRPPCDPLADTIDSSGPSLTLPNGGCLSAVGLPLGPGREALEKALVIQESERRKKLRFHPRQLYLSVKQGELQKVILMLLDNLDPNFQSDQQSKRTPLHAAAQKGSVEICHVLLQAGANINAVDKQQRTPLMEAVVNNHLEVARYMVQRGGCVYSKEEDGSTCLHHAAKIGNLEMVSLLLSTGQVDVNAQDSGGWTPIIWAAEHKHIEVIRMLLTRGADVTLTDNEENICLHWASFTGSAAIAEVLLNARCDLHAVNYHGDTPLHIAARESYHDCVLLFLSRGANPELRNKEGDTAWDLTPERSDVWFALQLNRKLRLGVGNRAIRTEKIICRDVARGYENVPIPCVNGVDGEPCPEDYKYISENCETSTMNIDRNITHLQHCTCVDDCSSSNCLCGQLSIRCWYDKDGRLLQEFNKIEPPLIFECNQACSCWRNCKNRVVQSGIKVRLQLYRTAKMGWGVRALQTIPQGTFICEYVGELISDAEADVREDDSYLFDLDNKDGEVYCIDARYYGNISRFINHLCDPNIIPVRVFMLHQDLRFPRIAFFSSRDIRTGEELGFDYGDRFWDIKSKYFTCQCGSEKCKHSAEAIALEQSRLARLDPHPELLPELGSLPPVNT
T1 sequence (Q9H9B1 2-1298 limits assumed): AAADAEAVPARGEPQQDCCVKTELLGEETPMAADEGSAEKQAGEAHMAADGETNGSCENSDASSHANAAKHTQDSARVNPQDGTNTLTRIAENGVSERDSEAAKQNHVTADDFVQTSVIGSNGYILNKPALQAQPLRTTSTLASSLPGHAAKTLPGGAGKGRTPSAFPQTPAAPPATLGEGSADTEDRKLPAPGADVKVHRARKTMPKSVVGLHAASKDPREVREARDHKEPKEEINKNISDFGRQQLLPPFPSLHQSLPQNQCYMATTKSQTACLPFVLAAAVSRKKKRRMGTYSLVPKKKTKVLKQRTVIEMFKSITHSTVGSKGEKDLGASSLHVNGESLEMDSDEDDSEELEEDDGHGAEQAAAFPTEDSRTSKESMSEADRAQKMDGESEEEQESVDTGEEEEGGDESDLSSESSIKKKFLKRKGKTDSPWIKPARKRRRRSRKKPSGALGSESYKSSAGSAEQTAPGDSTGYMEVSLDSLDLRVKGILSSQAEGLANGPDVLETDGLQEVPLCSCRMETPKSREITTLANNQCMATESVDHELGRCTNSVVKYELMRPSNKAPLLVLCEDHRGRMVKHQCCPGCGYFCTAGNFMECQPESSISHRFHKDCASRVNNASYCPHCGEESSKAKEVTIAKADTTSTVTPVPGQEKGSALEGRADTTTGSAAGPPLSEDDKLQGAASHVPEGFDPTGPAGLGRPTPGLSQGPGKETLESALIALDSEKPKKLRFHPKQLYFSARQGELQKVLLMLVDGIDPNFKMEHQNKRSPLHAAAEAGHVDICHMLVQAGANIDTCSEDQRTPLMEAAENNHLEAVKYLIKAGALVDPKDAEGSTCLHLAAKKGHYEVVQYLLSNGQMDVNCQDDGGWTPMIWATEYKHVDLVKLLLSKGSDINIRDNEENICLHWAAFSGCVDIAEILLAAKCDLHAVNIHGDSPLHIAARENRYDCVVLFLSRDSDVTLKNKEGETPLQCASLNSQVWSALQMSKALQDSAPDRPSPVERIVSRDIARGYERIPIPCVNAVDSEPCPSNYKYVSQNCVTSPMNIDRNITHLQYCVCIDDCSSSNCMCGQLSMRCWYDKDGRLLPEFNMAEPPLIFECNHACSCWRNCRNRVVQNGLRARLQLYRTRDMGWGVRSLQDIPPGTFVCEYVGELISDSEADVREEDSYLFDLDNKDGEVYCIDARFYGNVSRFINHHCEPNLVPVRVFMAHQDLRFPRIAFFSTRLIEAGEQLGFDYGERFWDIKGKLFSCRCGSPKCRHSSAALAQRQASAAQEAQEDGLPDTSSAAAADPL

3×MBT domain of L3MBTL1 = experiment: Triple SILAC pull-down, 3xMBT/3xMBTD355N ratio (cytoplasmic, nuclear and chromatin fractions of 293T cells); assay type: binding, human; conditions: SILAC ratio, pull-down 3xMBT vs 3xMBTD355N; for 3xMBT/D355N UNC Heavy: experiment with UNC0638 in heavy SILAC media; for 3xMBT/D355N UNC Light: experiment with UNC0638 in light SILAC media;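 for all read-outs here: proteins quantified with MaxQuant, requiring at least two unique peptides and quantification in both label directions, normalized to the mean of proteins from a digested loading control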
G9a and GLP [2] = biological target: T1, G9a and GLP; experiment: Triple SILAC pull-down after UNC0638 treatment of 293T cells, DMSO/UNC0638 ratio of protein captured by 3×MBT; assay type: cell-based; design: endogenous in cells; host or cells: HEK 293T; conditions: for Relative to UNC0638 UNC Heavy / Relative to UNC0638 UNC Light: SILAC ratio DMSO/UNC0638 of protein pulled down with 3xMBT; for Relative to UNC0638 UNC Heavy: UNC0638 in heavy SILAC media; for Relative to UNC0638 UNC Light: UNC0638 in light SILAC media; for Relative to UNC0638 Average: average of UNC Light and UNC Heavy experiments

change in amount captured by 3×MBT following UNC0638 treatment (G9a and GLP [1]): decreased strongly
B1: ACIN1: a known G9a substrate (protein, UniProt Q9UKV3 1-1341, looked up)
Apoptotic chromatin …: MWRRKHPRTSGGTRGVLSGNRGVEYGSGRGHLGTFEGRWRKLPKMPEAVGTDPSTSRKMAELEEVTLDGKPLQALRVTDLKAALEQRGLAKSGQKSALVKRLKGALMLENLQKHSTPHAAFQPNSQIGEEMSQNSFIKQYLEKQQELLRQRLEREAREAAELEEASAESEDEMIHPEGVASLLPPDFQSSLERPELELSRHSPRKSSSISEEKGDSDDEKPRKGERRSSRVRQARAAKLSEGSQPAEEEEDQETPSRNLRVRADRNLKTEEEEEEEEEEEEDDEEEEGDDEGQKSREAPILKEFKEEGEEIPRVKPEEMMDERPKTRSQEQEVLERGGRFTRSQEEARKSHLARQQQEKEMKTTSPLEEEEREIKSSQGLKEKSKSPSPPRLTEDRKKASLVALPEQTASEEETPPPLLTKEASSPPPHPQLHSEEEIEPMEGPAPAVLIQLSPPNTDADTRELLVSQHTVQLVGGLSPLSSPSDTKAESPAEKVPEESVLPLVQKSTLADYSAQKDLEPESDRSAQPLPLKIEELALAKGITEECLKQPSLEQKEGRRASHTLLPSHRLKQSADSSSSRSSSSSSSSSRSRSRSPDSSGSRSHSPLRSKQRDVAQARTHANPRGRPKMGSRSTSESRSRSRSRSRSASSNSRKSLSPGVSRDSSTSYTETKDPSSGQEVATPPVPQLQVCEPKERTSTSSSSVQARRLSQPESAEKHVTQRLQPERGSPKKCEAEEAEPPAATQPQTSETQTSHLPESERIHHTVEEKEEVTMDTSENRPENDVPEPPMPIADQVSNDDRPEGSVEDEEKKESSLPKSFKRKISVVSATKGVPAGNSDTEGGQPGRKRRWGASTATTQKKPSISITTESLKSLIPDIKPLAGQEAVVDLHADDSRISEDETERNGDDGTHDKGLKICRTVTQVVPAEGQENGQREEEEEEKEPEAEPPVPPQVSVEVALPPPAEHEVKKVTLGDTLTRRSISQQKSGVSITIDDPVRTAQVPSPPRGKISNIVHISNLVRPFTLGQLKELLGRTGTLVEEAFWIDKIKSHCFVTYSTVEEAVATRTALHGVKWPQSNPKFLCADYAEQDELDYHRGLLVDRPSETKTEEQGIPRPLHPPPPPPVQPPQHPRAEQREQERAVREQWAEREREMERRERTRSEREWDRDKVREGPRSRSRSRDRRRKERAKSKEKKSEKKEKAQEEPPAKLLDDLFRKTKAAPCIYWLPLTDSQIVQKEAERAERAKEREKRRKEQEEEEQKEREKEAERERNRQLEREKRREHSRERDRERERERERDRGDRDRDRERDRERGRERDRRDTKRHSRSRSRSTPVRDRGGRR

Relative to UNC0638 UNC Heavy (G9a and GLP [2]): 0.34 log base 2
Relative to UNC0638 UNC Light (G9a and GLP [2]): 0.18 log base 2
Relative to UNC0638 Average (G9a and GLP [2]): 0.26 log base 2
B2: XRN2 (protein, UniProt Q9H0D6 1-950, looked up)
5'-3' exoribonuclease 2: MGVPAFFRWLSRKYPSIIVNCVEEKPKECNGVKIPVDASKPNPNDVEFDNLYLDMNGIIHPCTHPEDKPAPKNEDEMMVAIFEYIDRLFSIVRPRRLLYMAIDGVAPRAKMNQQRSRRFRASKEGMEAAVEKQRVREEILAKGGFLPPEEIKERFDSNCITPGTEFMDNLAKCLRYYIADRLNNDPGWKNLTVILSDASAPGEGEHKIMDYIRRQRAQPNHDPNTHHCLCGADADLIMLGLATHEPNFTIIREEFKPNKPKPCGLCNQFGHEVKDCEGLPREKKGKHDELADSLPCAEGEFIFLRLNVLREYLERELTMASLPFTFDVERSIDDWVFMCFFVGNDFLPHLPSLEIRENAIDRLVNIYKNVVHKTGGYLTESGYVNLQRVQMIMLAVGEVEDSIFKKRKDDEDSFRRRQKEKRKRMKRDQPAFTPSGILTPHALGSRNSPGSQVASNPRQAAYEMRMQNNSSPSISPNTSFTSDGSPSPLGGIKRKAEDSDSEPEPEDNVRLWEAGWKQRYYKNKFDVDAADEKFRRKVVQSYVEGLCWVLRYYYQGCASWKWYYPFHYAPFASDFEGIADMPSDFEKGTKPFKPLEQLMGVFPAASGNFLPPSWRKLMSDPDSSIIDFYPEDFAIDLNGKKYAWQGVALLPFVDERRLRAALEEVYPDLTPEETRRNSLGGDVLFVGKHHPLHDFILELYQTGSTEPVEVPPELCHGIQGKFSLDEEAILPDQIVCSPVPMLRDLTQNTVVSINFKDPQFAEDYIFKAVMLPGARKPAAVLKPSDWEKSSNGRQWKPQLGFNRDRRPVHLDQAAFRTLGHVMPRGSGTGIYSNAAPPPVTYQGNLYRPLLRGQAQIPKLMSNMRPQDSWRGPPPLFQQQRFDRGVGAEPLLPWNRMLQTQNAAFQPNQYQMLAGPGGYPPRRDDRGGRQGYPREGRKYPLPPPSGRYNWN
3xMBT/D355N UNC Heavy (3×MBT domain of L3MBTL1): 2.19 log base 2
3xMBT/D355N UNC Light (3×MBT domain of L3MBTL1): 2.76 log base 2

Relative to UNC0638 UNC Heavy (G9a and GLP [2]): 0.37 log base 2
Relative to UNC0638 UNC Light (G9a and GLP [2]): 0.14 log base 2
Relative to UNC0638 Average (G9a and GLP [2]): 0.26 log base 2
B3: MATR3 (protein, UniProt P43243 2-847, looked up)
Matrin-3: SKSFQQSSLSRDSQGHGRDLSAAGIGLLAAATQSLSMPASLGRMNQGTARLASLMNLGMSSSLNQQGAHSALSSASTSSHNLQSIFNIGSRGPLPLSSQHRGDADQASNILASFGLSARDLDELSRYPEDKITPENLPQILLQLKRRRTEEGPTLSYGRDGRSATREPPYRVPRDDWEEKRHFRRDSFDDRGPSLNPVLDYDHGSRSQESGYYDRMDYEDDRLRDGERCRDDSFFGETSHNYHKFDSEYERMGRGPGPLQERSLFEKKRGAPPSSNIEDFHGLLPKGYPHLCSICDLPVHSNKEWSQHINGASHSRRCQLLLEIYPEWNPDNDTGHTMGDPFMLQQSTNPAPGILGPPPPSFHLGGPAVGPRGNLGAGNGNLQGPRHMQKGRVETSRVVHIMDFQRGKNLRYQLLQLVEPFGVISNHLILNKINEAFIEMATTEDAQAAVDYYTTTPALVFGKPVRVHLSQKYKRIKKPEGKPDQKFDQKQELGRVIHLSNLPHSGYSDSAVLKLAEPYGKIKNYILMRMKSQAFIEMETREDAMAMVDHCLKKALWFQGRCVKVDLSEKYKKLVLRIPNRGIDLLKKDKSRKRSYSPDGKESPSDKKSKTDGSQKTESSTEGKEQEEKSGEDGEKDTKDDQTEQEPNMLLESEDELLVDEEEAAALLESGSSVGDETDLANLGDVASDGKKEPSDKAVKKDGSASAAAKKKLKKVDKIEELDQENEAALENGIKNEENTEPGAESSENADDPNKDTSENADGQSDENKDDYTIPDEYRIGPYQPNVPVGIDYVIPKTGFYCKLCSLFYTNEEVAKNTHCSSLPHYQKLKKFLNKLAEERRQKKET
3xMBT/D355N UNC Heavy (3×MBT domain of L3MBTL1): 1.72 log base 2
3xMBT/D355N UNC Light (3×MBT domain of L3MBTL1): 1.77 log base 2
